The values that follow come from US20220089656A1 (published 2022).

The assay addresses T1, human ASIP (agouti-signaling protein, RnD Systems) (human, UniProt P42127 23-132).
T1 construct: Coated at 2 ug/ml; also called ASIP protein
T1 sequence (looked up): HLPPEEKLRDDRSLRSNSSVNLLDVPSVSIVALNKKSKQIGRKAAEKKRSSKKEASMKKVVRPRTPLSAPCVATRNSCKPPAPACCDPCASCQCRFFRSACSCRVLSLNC
Put plainly: ELISA: Protein M-HRP on coated human ASIP without antibody.

B1: Protein M horseradish peroxidase (HRP) fusion protein (other)
chain: EQKLISEEDLAANQLTPTFYDNSCPNVSNIVRDTIVNELRSDPRIAASILRLHFHDCFVNGCDASILLDNTTSFRTEKDAFGNANSARGFPVIDRMKAAVESACPRTVSCADLLTIAAQQSVTLAGGPSWRVPLGRRDSLQAFLDLANANLPAPFFTLPQLKDSFRNVGLNRSSDLVALSGGHTFGKNQCRFIMDRLYNFSNTGLPDPTLNTTYLQTLRGLCPLNGNLSALVDFDLRTPTIFDNKYYVNLEEQKGLIQSDQELFSSPNATDTIPLVRSFANSTQTFFNAFVEAMDRMGNITPLTGTQGQIRLNCRVVNSNSGGGGSGGGGSGGGGSTNLVNQSGYALVASGRSGNLGFKLFSTQSPSAEVKLKSLSLNDGSYQSEIDLSGGANFREKFRNFANELSEAITNSPKGLDRPVPKTEISGLIKTGDNFITPSFKAGYYDHVASDGSLLSYYQSTEYFNNRVLMPILQTTNGTLMANNRGYDDVFRQVPSFSGWSNTKATTVSTSNNLTYDKWTYFAAKGSPLYDSYPNHFFEDVKTLAIDAKDISALKTTIDSEKPTYLIIRGLSGNGSQLNELQLPESVKKVSLYGDYTGVNVAKQIFANVVELEFYSTSKANSFGFNPLVLGSKTNVIYDLFASKPFTHIDLTQVTLQNSDNSAIDANKLKQAVGDIYNYRRFERQFQGYFAGGYIDKYLVKNVNTNKDSDDDLVYRSLKELNLHLEEAYREGDNTYYRVNENYYPGASIYENERASRDSEFQNEILKRAEQNGVTFDENIKRITASGKYSVQFQKLENDTDSSLERMTKAVEGLVTVIGEEKFETVDITGVSSDTNEVKSLAKELKTNALGVKLKL
notes: also called Protein M-HRP
B1: the binding result is “no binding”.
